The source of these data is article PMC5206653, “PDLIM5 links kidney anion exchanger 1 (kAE1) to ILK and is required for membrane targeting of kAE1” (Scientific Reports, 2017).

This experiment deals with T1, tag-free PDZ domain of PDLIM5 (PDLIM5-PDZ), first 127 residues (human, UniProt Q96HC4 1-127).
T1 construct: cDNA amplified from human kidney cDNA; a degradation product of the full-length construct in pSUMO3; also called untagged PDLIM5-PDZ; source: E. coli BL21, purified (Ni-NTA, SUMO proteinase 2 digestion, size-exclusion chromatography); not shown: His6-SUMO3, N-terminal, cleaved
T1 sequence (looked up): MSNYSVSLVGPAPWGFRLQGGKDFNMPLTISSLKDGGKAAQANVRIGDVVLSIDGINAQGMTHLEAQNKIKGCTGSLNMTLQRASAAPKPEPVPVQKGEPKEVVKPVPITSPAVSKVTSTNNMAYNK
The experiment is described as follows: ELISA; 100 μl of 30 μM GST_AE1C-WT, -Δ11, -M909T or GST alone immobilised on a 96-well plate; incubated with 100 μl of 2 μg/ml GST_PDLIM5, tag-free PDLIM5-PDZ or GST_ILK; detection with anti-PDLIM5-nt or anti-ILK, HRP, ABTS. Conditions: both partners purified. (In general: ELISA stands for enzyme-linked immunosorbent assay.)

B1: GST-tagged AE1 C-terminal domain, wild type (GST_AE1C-WT) (domain or fragment, human)
chain: LIFRNVELQCLDADDAKATFDEEEGRDEYDEVAMPV
notes: last 36 residues of anion exchanger 1 (AE1, SLC4A1), the cytosolic C-terminal tail; cloned into pGEX-4T-1; source: E. coli BL21, purified (glutathione sepharose beads); not shown: GST, N-terminal, kept
For the molecule B1, the binding result was “binds”.

B2: GST-tagged AE1 C-terminal domain with the missense mutation M909T (GST_AE1C-M909T) (domain or fragment, human, UniProt P02730 876-911, looked up)
chain: LIFRNVELQCLDADDAKATFDEEEGRDEYDEVATPV
notes: last 36 residues of anion exchanger 1 (AE1, SLC4A1) with the dRTA-causing mutation M909T; cloned into pGEX-4T-1; C-terminus becomes A908TPV; source: E. coli BL21, purified (glutathione sepharose beads); not shown: GST, N-terminal, kept
As to B2, the binding result was “binds”.
